Source: patent publication US20110256557A1, “IDENTIFYING PARATHYROID HORMONE AGONISTS AND ANTAGONISTS” (DISCOVERYBIOMED, INC., priority 2008, published 2011)

Molecular target: T1, PTH1R on cell surface (Homo sapiens, UniProt Q03431)
T1 construct: HA; expressed in transfected cells; LRP6N-IgG conditioned medium came from transfected HEK 293 cells
T1 sequence (Q03431 27-593): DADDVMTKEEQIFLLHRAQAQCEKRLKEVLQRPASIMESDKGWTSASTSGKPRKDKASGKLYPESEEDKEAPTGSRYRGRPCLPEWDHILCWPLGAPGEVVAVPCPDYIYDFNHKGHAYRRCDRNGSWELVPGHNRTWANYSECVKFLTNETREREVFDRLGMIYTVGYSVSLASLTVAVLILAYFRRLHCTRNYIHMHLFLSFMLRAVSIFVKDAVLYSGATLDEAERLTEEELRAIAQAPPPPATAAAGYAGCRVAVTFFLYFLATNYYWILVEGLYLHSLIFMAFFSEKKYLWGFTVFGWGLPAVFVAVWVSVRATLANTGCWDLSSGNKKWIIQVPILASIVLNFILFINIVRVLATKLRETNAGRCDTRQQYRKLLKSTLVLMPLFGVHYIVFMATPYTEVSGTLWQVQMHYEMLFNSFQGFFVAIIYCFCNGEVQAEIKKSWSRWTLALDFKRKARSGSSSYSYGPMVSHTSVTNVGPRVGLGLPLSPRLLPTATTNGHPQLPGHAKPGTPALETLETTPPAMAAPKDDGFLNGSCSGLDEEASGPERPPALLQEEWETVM
Experiment: Cell surface binding by immunofluorescence colocalization assay
Format: cell-based
Procedure: Cells were transfected with HA-PTH1R and treated with IgG conditioned medium or LRP6N-IgG conditioned medium for 1 hour followed by PTH (1-84) treatment for 15 minutes. Cells were then washed with phosphate buffered saline (PBS), fixed with 4% paraformaldehyde, permeabilized with 0.1% Triton X-100, and incubated with primary antibody followed by incubation with chromophore-conjugated secondary antibody. Digital pictures were taken using an Olympus, IX TRINOC camera fitted to an Olympus, IX70 Inverted Research Microscope (Olympus; Center Valley, Pa.) with objective lenses of Hoffman Modulation Contrast®, HMC 10 LWD PL FL, 0.3NA ∝/1, at room temperature, and processed using MagnaFire® SP imaging software. A […] TCs SP2 system was used for confocal imaging. The ratios of the number of cells showing in green to the number of cells showing in red were calculated. For each treatment, 100 cells on each of three different slides were analyzed.

B1: LRP6N-IgG: LRP6 extracellular domain fused with IgG (protein)
chain: APLLLYANRRDLRLVDATNGKENATIVVGGLEDAAAVDFVFSHGLIYWSDVSEEAIKRTEFNKTESVQNVVVSGLLSPDGLACDWLGEKLYWTDSETNRIEVSNLDGSLRKVLFWQELDQPRAIALDPSSGFMYWTDWGEVPKIERAGMDGSSRFIIINSEIYWPNGLTLDYEEQKLYWADAKLNFIHKSNLDGTNRQAVVKGSLPHPFALTLFEDILYWTDWSTHSILACNKYTGEGLREIHSDIFSPMDIHAFSQQRQPNATNPCGIDNGGCSHLCLMSPVKPFYQCACPTGVKLLENGKTCKDGATELLLLARRTDLRRISLDTPDFTDIVLQLEDIRHAIAIDYDPVEGYIYWTDDEVRAIRRSFIDGSGSQFVVTAQIAHPDGIAVDWVARNLYWTDTGTDRIEVTRLNGTMRKILISEDLEEPRAIVLDPMVGYMYWTDWGEIPKIERAALDGSDRVVLVNTSLGWPNGLALDYDEGKIYWGDAKTDKIEVMNTDGTGRRVLVEDKIPHIFGFTLLGDYVYWTDWQRRSIERVHKRSAEREVIIDQLPDLMGLKATNVHRVIGSNPCAEENGGCSHLCLYRPQGLRCACPIGFELISDMKTCIVPEAFLLFSRRADIRRISLETNNNNVAIPLTGVKEASALDFDVTDNRIYWTDISLKTISRAFMNGSALEHVVEFGLDYPEGMAVDWLGKNLYWADTGTNRIEVSKLDGQHRQVLVWKDLDSPRALALDPAEGFMYWTEWGGKPKIDRAAMDGSERTTLVPNVGRANGLTIDYAKRRLYWTDLDTNLIESSNMLGLNREVIADDLPHPFGLTQYQDYIYWTDWSRRSIERANKTSGQNRTIIQGHLDYVMDILVFHSSRQSGWNECASSNGHCSHLCLAVPVGGFVCGCPAHYSLNADNRTCSAPTTFLLFSQKSAINRMVIDEQQSPDIILPIHSLRNVRAIDYDPLDKQLYWIDSRQNMIRKAQEDGSQGFTVVVSSVPSQNLEIQPYDLSIDIYSRYIYWTCEATNVINVTRLDGRSVGVVLKGEQDRPRAVVVNPEKGYMYFTNLQERSPKIERAALDGTEREVLFFSGLSKPIALALDSRLGKLFWADSDLRRIESSDLSGANRIVLEDSNILQPVGLTVFENWLYWIDKQQQMIEKIDMTGREGRTKVQARIAQLSDIHAVKELNLQEYRQHPCAQDNGGCSHICLVKGDGTTRCSCPMHLVLLQDELSCGEPPTCSPQQFTCFTGEIDCIPVAWRCDGFTECEDHSDELNCPVCSESQFQCASGQCIDGALRCNGDANCQDKSDEKNCEVLCLIDQFRCANGQCIGKHKKCDHNVDCSDKSDELDCYPTEEPAPQA
modifications: left off: a dimerising Fc or GST
With addition of PTH ligand (PTH (1-84), 15 minutes)
  immuno-colocalization with PTH1R on cell surface: 82.3%
Without PTH ligand, cells transfected with HA-PTH1R
  immuno-colocalization with PTH1R on cell surface: 22.8%
